Laboratory results: IntAct's records for PubMed 23949442

B1: SNARE-associated protein Snapin (Homo sapiens), O95295 (parent)
chain: MAGAGSAAVSGAGTPVAGPTGRDLFAEGLLEFLRPAVQQLDSHVHAVRESQVELREQIDNLATELCRINEDQKVALDLDPYVKKLLNARRRVVLVNNILQNAQERLRRLNHSVAKETARRRAMLDSGIYPPGSPGK

Variants of: B1
Settings: with snp25_rat Snap25, P60881
Sequence of snp25_rat Snap25, P60881 (P60881 whole entry, looked up): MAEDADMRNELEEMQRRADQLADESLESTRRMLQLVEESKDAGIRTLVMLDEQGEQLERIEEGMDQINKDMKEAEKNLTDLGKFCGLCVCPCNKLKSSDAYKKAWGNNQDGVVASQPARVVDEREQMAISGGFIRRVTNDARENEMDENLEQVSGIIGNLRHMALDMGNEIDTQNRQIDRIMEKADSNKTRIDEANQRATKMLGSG

| Variant | effect of a mutation on the interaction |
| --- | --- |
| MAGAGSAAVSGAGTPVAGPTGRDLFAEGLLEFLRPAVQQLDSHVHAVRESQVELREQIDNLATELCRINEDQKVALDLDPYVKKLLNARRRVVLVNNILQNAQERLRRLNHSVAKEDARRRAMLDSGIYPPGSPGK [T117D] | decreasing interaction |
